Laboratory results published in publication PMC6562043 (Scientific Reports, 2019).

Molecular target: T1, synthesized human Aβ42 peptide (human, UniProt P05067 672-713)
T1 construct: also called Aβ peptide
Experiment: ELISA
Conditions: one partner purified

B1: human PrP^C (transgene of TgHuPrP mice) (natural protein)
chain: not shown
B1 was tested, and the “binding relative to mouse PrP^C, corrected for PrP expression” value was 177 ± 9.5%.
